The source of these data is paper PMC4108065, “Inflammation and pancreatic cancer: molecular and functional interactions between S100A8, S100A9, NT-S100A8 and TGFβ1” (Cell Communication and Signaling : CCS, 2014).

Series [1] in a line: Stability of the 2280 m/z peptide in non-conditioned media (MALDI-TOF/MS). As to conditions: 200 μM, 37°C, time 0, MALDI-TOF/MS. Type of series: in vitro ADME. The method, then:
(§1) To obtain BxPC3 and Capan1 conditioned media (CM), 400,000 cells were cultured (75 cm^2 flasks) for 96 hours in RPMI supplemented with 1% FCS and 0.1% gentamycin. In parallel, Ukrain (Nowicky Pharma, Wien, Austria) treated Capan1 CM were obtained as above, the difference being that Ukrain was added 24 hours after cells had been seeded at the final concentration of 5 μM. Complete culture media maintained in a cell culture incubator for 96 hours (negative control), Capan1 and Ukrain-treated Capan1 CM were centrifuged at 1,500 rpm for 10 min, and then immediately mixed with 3 μM S100A8 or 2.5 μM S100A9 (ProSpec-Tany TechnoGene, Ness Ziona, Israel) and maintained at 37°C overnight before MALDI-TOF/MS analyses. Complete culture media, BxPC3 and Capan1 CM, treated as described above, were incubated at 37°C with 200 μM of the S100A8 1–19 N-terminal aminoacid sequence (NT-S100A8) (Primm, Milano, Italy) for 1, 2, 3, 4, 5, 6, 12 and 24 hours before MALDI-TOF/MS analyses. At least three independent sets of experiments were performed for both assays.
(§2) Cell culture media were first desalted and purified by ZipTip C18 pipette tips, following the procedure described in the ZipTip user’s guide. […]

Series [2] is described as follows: Degradation of the 2280 m/z peptide in Capan1 conditioned media (MALDI-TOF/MS). Type of series: in vitro ADME, human. As to conditions: 37°C. The method, then:
as §1, §2

A short description of series [3]: Degradation of the 2280 m/z peptide in BxPC3 conditioned media (MALDI-TOF/MS). As to conditions: 37°C. The format is in vitro ADME, human. How it is done:
as §1, §2

Series [4] deals with the molecule itself. Kind of series: MALDI-TOF/MS of mixtures (linear positive ion mode); proteins and CaCl2 mixed at equimolar concentration (11.3 μM) in aqueous solution, incubated overnight at 37°C, diluted 1/10 in 0.1% TFA, sinapinic acid matrix.
Series [5] has as its target T1, S100A9, P06702.
T1 chain: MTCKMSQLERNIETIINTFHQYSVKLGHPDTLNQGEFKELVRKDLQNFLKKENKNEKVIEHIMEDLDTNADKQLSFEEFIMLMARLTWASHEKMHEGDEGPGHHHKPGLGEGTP
The description is as above. As to conditions: remark: other sources report otherwise.

Values joined by “and” are separate entries in the source; they are usually repeats but may differ in a detail not shown here. Equal values may be shown once.

Regarding “2280 m/z peptide: synthesized 1–19 N-terminal aminoacid sequence of S100A8, released by Capan1 conditioned medium (MLTELEKALNSIIDVYHKY; UniProt P05109 1-19, looked up, fragment)”, in series [1], the “abundance of the parental peptide at 2280 m/z (TIC normalized)” value is recorded as 0.99. Moreover, the “time of degradation of the parental 2280 m/z peptide” value in series [2] (200 μM peptide in Capan1 conditioned media (96 h, RPMI 1% FCS), MALDI-TOF/MS, TIC normalized) came to 2 h; in series [3] (200 μM peptide in BxPC3 conditioned media (96 h, RPMI 1% FCS), MALDI-TOF/MS, TIC normalized), 12 h. Moreover, the “parental 19 aminoacid peptide after 24 hours' incubation” value in series [2] (200 μM, Capan1 conditioned media, 24 hours, MALDI-TOF/MS 650–3000 m/z) is on record as “disappeared”; in series [3] (200 μM, BxPC3 conditioned media, 24 hours, MALDI-TOF/MS 650–3000 m/z) it was “disappeared”.

B1: S100A8 (natural protein, UniProt P05109 1-93, looked up)
chain: MLTELEKALNSIIDVYHKYSLIKGNFHAVYRDDLKKLLETECPQYIRKKGADVWFKELDINTDGAVNFQEFLILVIKMGVAAHKKSHEESHKE
notes: Commercial recombinant protein; source: bought: ProSpec-Tany TechnoGene
For B1, the stoichiometry N (in general, a count of units in the complex or per binding partner) in series [4] turned out to be 2.

B2: S100A9, P06702 1-114 (natural protein)
chain: MTCKMSQLERNIETIINTFHQYSVKLGHPDTLNQGEFKELVRKDLQNFLKKENKNEKVIEHIMEDLDTNADKQLSFEEFIMLMARLTWASHEKMHEGDEGPGHHHKPGLGEGTP
For the molecule B2, the stoichiometry N in series [5] was 2 and 3.
